± gives the uncertainty stated by the source.
Assay: protein stability index of a GFP-peptide fusion (yeast GPS) (PSI 1-4); higher = more stable; sorted into four equal gates, so the index is relative within each strain
Conditions: pdr5∆
Summary of the method: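 Sequencing reads from sorted gates were used to score each peptide. The library consisted of tiled 17-residue yeast protein peptides fused downstream of GFP on a Cherry-expressing plasmid, pooled and carried in yeast. Mid-log cultures in leucine-free medium were split into four equal gates by GFP/Cherry ratio, and each gate's plasmids were PCR-amplified and Illumina-sequenced. The protein stability index adds up, over all gates, the read frequency multiplied by the gate number.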

| Sequence | protein stability index |
| --- | --- |
| NFEAVFERLVPRGTAKL [SMC3] | 2.84 ± 0.16 |
| NFEKILLTCYELEKKYH [SRB8] | 2.34 ± 0.1 |
| NFKGLAKEKERMLEEAI [YIL149C/MLP2] | 3.56 ± 0.09 |

Same assay, conditions: san1∆

| Sequence | protein stability index |
| --- | --- |
| LVASAKGLQTVVVEEDA [RPL31A] | 2.54 ± 0.087 |
| LVCGNDSSYQDIFAVNL [RET1] | 2.24 ± 0.26 |
| LVDDENEPSQSLISTRN [BRN1] | 3.19 ± 0.047 |
| LVELMFIRSTNSWFDVT [FAS1] | 1.72 ± 0.2 |
| LVETCLNDLVESSFIEI [BRR2] | 2.69 ± 0.085 |
| LVFILAVVGNNMLLDPA [RRP42] | 1.94 ± 0.12 |
| LVLDLLTWLSSFSVCKI [IRR1] | 1.65 ± 0.073 |
| LVLGEVSKKELYAIKKV [BRR2] | 3.13 ± 0.079 |
| LVQLFLWDSKELEQLVE [RPN3] | 2.08 ± 0.28 |
| LVSDSEIIDLNLHSFTK [POP6] | 2.31 ± 0.07 |
| LVSVVEAFIASGITDPY [FAS2] | 1.67 ± 0.072 |
| LVTCEGSEEKAFVPKKR [SRP54] | 1.62 ± 0.13 |
| LVVIRFGRKNDRQCMIM [DIB1] | 2.33 ± 0.073 |
| LWELALAFIPNILALNL [YML031W/NDC1] | 1.85 ± 0.083 |
| LYKLNDKIAVAVAGLTA [PRE9] | 2.18 ± 0.095 |
| LYQIDYLGTKVELPYGA [PRE1] | 1.62 ± 0.099 |
| LYRLSTPLRDEVTDKNY [PRP8] | 3.02 ± 0.067 |
| LYSVKFAPAHLGLKLAC [YGL100W/SEH1] | 2.72 ± 0.072 |
| MAAEKILTPESQLKKSK [RPL7A] | 3.25 ± 0.2 |
| MAGKVLILTSHNMKAYY [BRR2] | 1.6 ± 0.094 |
| MAKQLIRLANESSELNK [CSN12] | 2.96 ± 0.079 |
| MAKRTKKVGITGKYGVR [RPL43A] | 3.09 ± 0.1 |
| MAMNITPRLYTDRSRDF [RPB2] | 2.96 ± 0.096 |
| MAQRVTFRRRNPYNTRS [RPL34A] | 1.54 ± 0.072 |

| Sequence | protein stability index |
| --- | --- |
| MARGPKKHLKRLAAPHH [RPS4A] | 3.1 ± 0.069 |
| MATNKIETLDPALIRPG [RPT2] | 2.96 ± 0.081 |
| MAVGKNKRLSRGKKGLK [RPS1B] | 1.64 ± 0.14 |
| MCHIVRKFHELNDHIDD [GRR1] | 2.18 ± 0.079 |
| MDAYSTRPLTLSHGSLE [FAS1] | 3.05 ± 0.093 |
| MDEMDNVIRSLEQEYRL [RMP1] | 1.71 ± 0.15 |
| MDFFNLNNNNNNNNTTT [SWI1] | 2.53 ± 0.13 |
| MDFLNSMENTPKVPVSA [GAL11] | 2.1 ± 0.13 |
| MDQDNNNHNDSNRLHPP [GRR1] | 2.69 ± 0.064 |
| MDVDIGCYFEEKRYDDK [CSN12] | 3.01 ± 0.11 |
| MEQCKQRYQDLSQQQKD [YIL149C/MLP2] | 2.95 ± 0.067 |
| MEWPKDMLKYKEDEPVV [ITC1] | 3.36 ± 0.09 |
| MFANMKVLGVKDMSPIL [LRP1] | 1.41 ± 0.072 |
| MFDAFVSFYFEDGTIES [SIN4] | 2.52 ± 0.059 |
| MGEAQTGANFDDVERGV [REC8] | 3.52 ± 0.17 |
| MGKSHGYRSRTRYMFQR [RPL21A] | 3.3 ± 0.056 |
| MGLGKTLQTISFLGYLR [ISW2] | 1.67 ± 0.087 |
| MGNTKVHCRISCQIAQP [RRP45] | 1.56 ± 0.1 |
| MHLMALHIHGSSNPLGI [COB] | 2.1 ± 0.052 |
| MKLDDSSKTRNVLNRIQ [ITC1] | 2.71 ± 0.12 |
| MKPKAEKESDDGLLEYL [SMC4] | 3.31 ± 0.18 |
| MKRADKFKDMGIRAPKG [RPT5] | 2.98 ± 0.13 |
| MKSLLTELSNKETTIEK [YIL149C/MLP2] | 3.41 ± 0.07 |
| MKTQRFVSNMGFDIQKS [SIR4] | 2.5 ± 0.083 |

| Sequence | protein stability index |
| --- | --- |
| MKYTQYPNSSKLKRNSD [LIN1] | 2.99 ± 0.05 |
| MKYVRETSGVTTALLKD [MED8] | 3 ± 0.081 |
| MLGHYLGEFSITYTPVR [RPS15] | 2.04 ± 0.16 |
| MLPPKSVKFTHIAHTLP [SSN2] | 2.05 ± 0.098 |
| MNAILTDVKLTLPQPRL [SMD1] | 2.65 ± 0.079 |
| MNLQNNVLNQIHQILLP [CSE2] | 2.24 ± 0.12 |
| MNNGSGRYLLTPPDDLH [SRB8] | 2.29 ± 0.13 |
| MNVTPLDELQWKSPEWI [MED6] | 3.19 ± 0.061 |
| MPGMPNMPGMPKVTPQM [SRP54] | 2.65 ± 0.18 |
| MPGSQINSPMPQQAQMQ [SNF2] | 3.05 ± 0.07 |
| MQIFVKTLTGKTITLEV [RPS31] | 2.61 ± 0.13 |
| MRRNSKILNIIKCSQSS [POP5] | 2.1 ± 0.073 |
| MRSKLEKLTLVTLSEIY [CSN9] | 1.79 ± 0.07 |
| MSACVGQQSVEGKRIAF [RPO21] | 1.62 ± 0.24 |
| MSDFVPIDAGLNEAPFP [MCD1] | 2.92 ± 0.051 |
| MSDSPLSKRQKRKSAQE [SMC4] | 3.04 ± 0.12 |
| MSEEQDPLLAGLGETSG [RPT4] | 3.57 ± 0.17 |
| MSLEPTQTVSGTPPMLH [DSN1] | 2.92 ± 0.22 |
| MSLTTAAPLLALLRENQ [RPN2] | 2.8 ± 0.12 |
| MSTKAQNPMRDLKIEKL [RPL11B] | 3.46 ± 0.11 |
| MTIDLEPIEESSQNNSE [IRR1] | 2.67 ± 0.11 |
| MTQRAIQSAESIKSQKE [SWI3] | 2.5 ± 0.14 |
| MTRSSVLADALNAINNA [RPS22A] | 2.72 ± 0.054 |
| MTSENPDVLLSRVINVV [RRP6] | 1.49 ± 0.12 |

| Sequence | protein stability index |
| --- | --- |
| MVGLVDPDKLKPNDLVG [RPT5] | 2.94 ± 0.062 |
| MVKGLLKSFTESTAGSA [ECM29] | 2.81 ± 0.11 |
| MVQQLSLFGSIGDDGYD [SRB5] | 3.16 ± 0.057 |
| MVSHKTARGKAALERLK [RPL16B] | 2.47 ± 0.21 |
| MYILGMCVSKGNASLKY [YCG1] | 1.58 ± 0.11 |
| NAELLDYLFHLLISLNI [YLR018C/POM34] | 1.21 ± 0.068 |
| NAKDKERLQLLEDVVGA [SMC3] | 3.01 ± 0.071 |
| NAKESNYTDLIWFPEDF [MED1] | 3.17 ± 0.12 |
| NALTVGDFDKFDSLIKV [RPN9] | 1.3 ± 0.14 |
| NAVTAAAANNNIKPVEQ [GAL11] | 2.77 ± 0.062 |
| NCPHSDSTQLLETILEE [SSN2] | 3.11 ± 0.13 |
| NDFANNLPKEGDIVLTR [CSL4] | 2.44 ± 0.12 |
| NDLRDMILNYNPSQGVS [UBP6] | 3.16 ± 0.077 |
| NDNNLKKLESQESLVKL [RPN5] | 2.76 ± 0.06 |
| NDRKQTTVSNDLENSPL [SSN2] | 3.13 ± 0.041 |
| NDSKEESTTEATGNESQ [YLR335W/NUP2] | 2.97 ± 0.22 |
| NEEATPIPSSETKADGI [RRP6] | 3.04 ± 0.049 |
| NEGLVEYIDAEEEESIL [RPB2] | 3.24 ± 0.078 |
| NEIANSIIQSKQDCVDW [BRR2] | 2.73 ± 0.071 |
| NENENFGYDIPLLDIVL [YML103C/NUP188] | 2.92 ± 0.049 |
| NENETRDKVCKQINEAR [PGD1] | 3.28 ± 0.079 |
| NENSNCLLSIPKSTKGK [YML103C/NUP188] | 2.61 ± 0.05 |
| NESSSNTTVISDKQRRL [DIS3] | 2.98 ± 0.061 |
| NFKGLAKEKERMLEEAI [YIL149C/MLP2] | 3.48 ± 0.071 |

Same assay, conditions: ubr1∆

| Sequence | protein stability index |
| --- | --- |
| LVASAKGLQTVVVEEDA [RPL31A] | 2.42 ± 0.085 |

Source: the supplement of paper PMC9732359
